Experimental data published in patent US7981863B2, “Treatment of Parkinson's disease with PDGF” (Neuronova AB, priority 2001, dated 2011).

Key:
[1] = tested on: MPTP-lesioned mice; experiment: MPTP-induced neuronal loss in substantia nigra pars compacta, intraventricular infusion; type: in vivo, mouse; conditions: for Total number of tyrosine hydroxylase neurons in the bilateral substantia nigra pars compacta: PDGF-BB intraventricularly 0.1 μg/h/kg for three days, two months later, Mean ± S.E.M
Method: Ten-week old male C57B1/6 mice (25 g, B&K Universal, Stockholm, Sweden).
PDGF-BB (Sigma) was administered directly into the right lateral ventricle of the brain using osmotic pumps (Alza 1003D, delivery of 1.0 μl/h for three days) and brain infusion kits. The drug solution was prepared as follows: 10 μg PDGF-BB was dissolved in 10 μl 1M HAc, after which pH was adjusted to 7.4 by adding 10 μl NaOH. A buffer was added (100 ml 0.01M PBS containing 5 mg/ml BSA and 20 mM Hepes) to a final volume of 4,000 μl. Each minipump was connected to a brain infusion needle, which was stereotaxically placed in the right lateral ventricle of the mouse brain in deeply anesthetized mice (chloral hydrate 60 mg/kg intraperitoneal). The pump was placed subcutaneously in the neck. The delivery rate of PDGF-BB was 0.1 μg/h/kg body weight. ^3H-thymidine (6.7 Ci/ml, NEN) was given for three days via another Alzet pump which was placed intraperitoneally.
One hour after the pumps were inserted, the neurotoxin 1-methyl-4-phenyl-1,2,3,6-tetrahydropyridine (MPTP HCl, Sigma) was given subcutaneously (40 mg/kg).
Two months later, animals were anesthetized with choral hydrate (60 mg/kg ip) and sacrificed by intracardial infusion of fixative (4% paraformaldehyde in 0.1 M phosphate buffered saline (PBS) containing 0.4% picric acid. After dissection, postfixation in the same fixative continued for 1.5 h followed by cryoprotection. After dissection of the midbrain, the two sides of the brain were separated with a cut along the ventro-dorsal midline and the tissue was postfixed in the same solution and cryoprotected in sucrose. Cryostat sections were prepared as follows: a randomly chosen half-brain was cut into 40 μm thick sections through the full rostro-caudal extension of substantia nigra pars compacta. A randomly chosen series of every 6th section was taken to perform free-floating immunohistochemistry using a polyclonal anti-tyrosine hydroxylase antibody (diluted 1:400, Pel-Freez) in order to identify dopaminergic neurons in the tissue. To visualize the antibody, the avidin-biotin peroxidase kit (Vector) with 0.03% DAB as chromagen was used adding 0.01% H2O2. Cresyl violet was employed to identify the nucleolus, Nissl substance and glia cells (Chan et al., 1997; Walters et al., 1999). The other half of the brain was sectioned in 10 μm thick sections on glass and a randomly chosen series of every 6th section was immunohistochemically stained for tyrosine hydroxylase in dopaminergic neurons as previously described. To detect incorporation of the ^3H-thymidine nucleotide in brain cells, the sampled slides were dipped in NTB2 nuclear track emulsion (Kodak) and stored in light-tight boxes at −20° C. for four weeks. […]

[2] = tested on: Healthy Rats; experiment: ICV infusion in healthy rats, BrdU / NeuN labelling; type: in vivo, rat
Method: Male rats (12 hours light/dark regime; feeding and drinking ad libitum; 5 animals in standard cage) were infused (Alzet minipumps) in the left lateral ventricle with human recombinant PDGF-BB for 7 days at a daily dose of 36 ng/day (8 animals/group). Human recombinant BDNF (brain derived neurotrophic factor) was used as a positive control (Pencea V et al., J. Neurosci Sep. 1 (2001), 21(17):6706-17). Bromodeoxyuridine (BrdU) was also included in the infusion vehicle (artificial cerebrospinal fluid) to enable measurement of proliferation by quantitation of BrdU incorporation in the DNA. Animals were sacrificed at 7 (proliferation) or 28 days (neurogenesis) after start of treatment and brains were dissected and prepared for sectioning and immunohistochemistry (Pencea V et al., J. Neurosci Sep. 1 (2001), 21(17):6706-17).
Proliferation was measured by BrdU incorporation and diaminobenzidine (DAB) staining of HRP conjugated secondary antibodies (FIG. 7). Cells were counted in a phase contrast microscope. Neural phenotype was assessed by staining for neuronal marker NeuN by immunocytochemistry using a fluorescence readout. The secondary antibodies were labeled with FITC or Alexa Fluor568. In double staining analyses designed to measure neurogenesis, BrdU and NeuN were quantitated by fluorescence (above) and counting of cells was done in a confocal microscope. For further experimental details, see Pencea V et al., J. Neurosci Sep. 1 (2001), 21(17):6706-17. A number of brain regions were analysed.

[3] = tested on: Mouse Neural Stem Cells; experiment: Neuronal differentiation (β-III Tubulin) of adult mouse neural stem cells; type: cell-based; conditions: 1 nM, 7 days
Method: Adult mouse neurosperes were dissociated with trypsin (Gibco) into single cells and transferred to poly-D-Lysine plates (BD) in the above culture medium, without growth factors, supplemented with 1% Fetal Calf Serum (Gibco). The cells were incubated over night to adhere to the plate. The medium was changed to culture medium, without growth factors, supplemented with 1 nM PDGF-AA or PDFG-BB (both from R&D Systems). The medium with new substance added every second day. The cells were incubated for a total of 7 days.
The cells were washed two times with PBS (Gibco) and fixed for 15 min RT with 4% Formaldehyde (Sigma) and permeabilized 20 min RT in 0.1% Triton X-100 (Sigma) in PBS. After fixation and permeabilization the cells were labelled with mouse monoclonal anti-β-III Tubulin (1:500 Promega). Primary antibody was visualized with anti mouse Texas-Red (1:100 Vector Laboratories). All antibodies were diluted in PBS with 0.1% Triton X-100.
The cells were washed twice with PBS (Gibco) and lysed with 200 ul lysis buffer/well. The lysis buffer contained PBS, 0.1% Triton X-100, 1 mM EDTA and 1 tab1. Protease inhibitor cocktail (Roche). The samples were run on a 4-12% Bis-Tris gel (Novex) under reduced conditions with MOPS buffer (Novex) and blotted onto a Hybond ECL nitrocellulose membrane (Amersham Biotech). Blocked in 5% ECL-Block (Amersham Biotech) in PBS+0.1% Tween 20 (Sigma). The membranes were labelled with mouse monoclonal anti-β-III Tubulin (1:5000 Promega). The primary antibody was detected using a secondary antibody anti-mouse-HRP (1:10000 Amersham Biotech) and ECL Plus+ Western Blot Detection Kit (Amersham Biotech). All antibodies were diluted in PBS with 0.1% Triton X-100, 1% ECL Block. The signal were then captured on ECL Hyper Film (Amersham Biotech)

B1: PDGF-BB: human recombinant PDGF-BB, platelet derived growth factor B-chain homodimer (protein)
chain: SLGSLTIAEPAMIAECKTRTEVFEISRRLIDRTNANFLVWPPCVEVQRCSGCCNNRNVQCRPTQVQLRPVQVRKIEIVRKKPIFKKATVTLEDHLACKCETVAAARPVT
- cell number in the substantia nigra ([1]; MPTP lesioned mice after infusion of PDGF): double
- Total number of tyrosine hydroxylase neurons in the bilateral substantia nigra pars compacta ([1]; MPTP-lesioned (40 mg/kg s.c.)): 10,000 ± 200
- MPTP-induced loss of tyrosine hydroxylase positive nerve cells ([1]; after an MPTP lesion): completely counteracted
- Total number of tyrosine hydroxylase neurons in the bilateral substantia nigra pars compacta ([1]; no MPTP lesion): 12,300 ± 300
- Cell count (BrdU, proliferation) along the lateral ventricle wall ([2]; 7-day group, ICV infusion 7 days, 36 ng/day, mean of two sections, mean +/- sem): 216 +/−25
- number of proliferating cells in the subventricular zone ([2]; 28-day group): no such statistically significant effect
- neurogenesis in the striatum ([2]; 28-day group, in comparison to vehicle treated animals): significantly increase neurogenesis
- BrdU positive cells in the dentate gyrus, the CA1 and the alveus ([2]; 28-day group, in comparison to vehicle-treated animals): no significant effect
- BrdU positive cells in the striatum ([2]; 28-day group, cells counted in 300 × 300 μm squares): 40 ± 6.8 (p < 0.01 to vehicle, ANOVA)
- number of β-III Tubulin positive cells in culture ([3]; compared to the control, FIG. 5): significantly increase the number of β-III Tubulin positive cells
- levels of β-III Tubulin protein (Western blot) ([3]; compared with the control, FIG. 6): significantly increased levels of β-III Tubulin protein
- neuronal differentiation of cultured mouse neural stem cells/progenitors ([3]; FIG. 5 and FIG. 6): trigger neuronal differentiation
